This is an account of results in patent US20030165997, “Zinc finger domain libraries” (published 2003).

One series concerns the target ZFP 18 RDER1-QSSR1-QSHT (synthetic). Briefly: cell_activity; HEK293 luciferase repression. To be noted: tags: HA tag and NLS (P3 vector). Here is the method: (§1) The in vivo activity assay for a particular three-finger protein was carried out as follows. HEK 293 cells were transfected with four plasmids: 14 ng of a plasmid expressing the particular three-finger protein; 14 ng of the reporter plasmid described above; 70 ng of a plasmid that expresses GAL4-VP 16; and 1.4 ng of a plasmid that expresses Renillar luciferase. The GAL4-VP 16 activates transcription of the minimal synthetic promoter in the reporter so that the repression effected by a particular three-finger protein could be clearly detected and compared to other three-finger proteins. The plasmid expressing Renillar luciferase provides a control of transfection efficiency.
(§2) Lipofectamine (Gibco-BRL) was used for the transfection procedures. Cells were transfected at 30-50% confluency in wells of a 96 well plate. The cells were incubated for two days prior to harvesting for the luciferase assay. Then luciferase activities were measured using the Dual-Luciferase™ Reporter Assay System (Promega). The observed firefly luciferase activity was normalized using the observed level of Renilla luciferase. The extent of repression or “fold-repression” was calculated by dividing a value for normalized reporter expression in the absence of a zinc finger protein by a value for normalized reporter expression in the presence of the zinc finger protein.
(§3) A total of 153 three-finger chimeric proteins were constructed from both the “zinc finger protein-first” and the “target site-first” approaches. These proteins were tested using the transient cotransfection assay described in Example 68.

A further series addresses ZFP 11 QSHT-RSHR-RDHT (synthetic). Briefly: cell_activity; HEK293 luciferase repression. The settings on record: tags: HA tag and NLS (P3 vector). Here is the method: as §1, §2, §3
A further series has as its target ZFP 2 CSNR1-RSHR-RDHT (synthetic). The series is described as follows: cell_activity; HEK293 luciferase repression. To be noted: tags: HA tag and NLS (P3 vector). Here is the method: as §1, §2, §3
Series [1] concerns the target T1, Zif268 zinc finger protein (three fingers) (UniProt P08046 SEQ:1-89). The series is described as follows: EMSA; Zn2+, Mg2+, pH 7.7, RT; yeast growth ++; 5.9-fold repression (Table 8).
Series [2] has as its target T1, Zif268 zinc finger protein (three …). Briefly: EMSA; Zn2+, Mg2+, pH 7.7, RT; no yeast growth; 1.3-fold repression (Table 8).
Another series has as its target ZFP 27 RSHR-RDER1-RSHR (synthetic). Briefly: cell_activity; HEK293 luciferase repression. To be noted: tags: HA tag and NLS (P3 vector). Here is the method:
as §1, §2, §3

The target in the next series is ZFP 1 RSNR-RDHT-RSNR (synthetic). The series is described as follows: cell_activity; HEK293 luciferase repression of GAL4-VP16 activated reporter. The settings on record: tags: HA tag and NLS (P3 vector). Here is the method:
as §1
(§4) Lipofectamine (Gibco-BRL) was used for the transfection procedures. Cells were transfected at 30-50% confluency in wells of a 96 well plate. The cells were incubated for two days prior to harvesting for the luciferase assay. Then luciferase activities were measured using the Dual-Luciferase™ Reporter Assay System (Promega). The observed firefly luciferase activity was normalized using the observed level of Renilla luciferase. The extent of repression or “fold-repression” was calculated by dividing a value for normalized reporter expression in the absence of a zinc finger protein by a value for normalized reporter expression in the presence of the zinc finger protein. […]

The target of a further series is ZFP 6 RSHR-RDER1-RDHT (synthetic). Briefly: cell_activity; HEK293 luciferase repression. To be noted: tags: HA tag and NLS (P3 vector). Here is the method: as §1, §2, §3
Another series concerns the target ZFP 30 RSHR-RSHR-QSHR2 (synthetic). The series is described as follows: cell_activity; HEK293 luciferase repression. The settings on record: tags: HA tag and NLS (P3 vector). Here is the method:
as §1, §2, §3

The next series concerns the target ZFP 25 QSNR3-RDER1-RSNR (synthetic). Briefly: cell_activity; HEK293 luciferase repression; same pair listed again as entry 61 with 1.5. The settings on record: tags: HA tag and NLS (P3 vector). Here is the method: as §1, §4
Another series concerns the target ZFP 32 QSNV2-RSNR-RDHT (Homo sapiens). The series is described as follows: cell_activity; HEK 293 luciferase. To be noted: tags: HA, NLS. Here is the method: as §1, §2, §3
For another series, the target named is ZFP 26 QSNR3-QSNV2-RSHR (synthetic). The series is described as follows: cell_activity; HEK293 luciferase repression. The settings on record: tags: HA tag and NLS (P3 vector). Here is the method: as §1, §2, §3
For the next series, the target named is ZFP 8 RSNR-QSHR2-QSSR1 (synthetic). The series is described as follows: cell_activity; HEK293 luciferase repression. The settings on record: tags: HA tag and NLS (P3 vector). Here is the method: as §1, §2, §3
For the next series, the target named is ZFP 13 QSHR2-RDER1-RSNR (synthetic). The series is described as follows: cell_activity; HEK293 luciferase repression. To be noted: tags: HA tag and NLS (P3 vector). Here is the method: as §1, §2, §3
The target in a further series is ZFP 24 CSNR1-QSHT-RSNR (synthetic). Briefly: cell_activity; HEK293 luciferase repression. The settings on record: tags: HA tag and NLS (P3 vector). Here is the method:
as §1, §2, §3

Another series addresses ZFP 19 RDER1-VSSR-QSHT (synthetic). The series is described as follows: cell_activity; HEK293 luciferase repression. The settings on record: tags: HA tag and NLS (P3 vector). Here is the method:
as §1, §2, §3

Chain of ZFP 18 RDER1-QSSR1-QSHT (synthetic) (chain, as listed by the source): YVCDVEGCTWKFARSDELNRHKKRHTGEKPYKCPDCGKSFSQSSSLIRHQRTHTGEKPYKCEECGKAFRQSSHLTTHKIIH
Chain of ZFP 32 QSNV2-RSNR-RDHT (Homo sapiens) (chain, as listed by the source): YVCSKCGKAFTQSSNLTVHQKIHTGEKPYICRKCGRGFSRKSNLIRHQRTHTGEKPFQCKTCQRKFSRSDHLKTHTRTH
Chain of ZFP 8 RSNR-QSHR2-QSSR1 (synthetic) (chain, as listed by the source): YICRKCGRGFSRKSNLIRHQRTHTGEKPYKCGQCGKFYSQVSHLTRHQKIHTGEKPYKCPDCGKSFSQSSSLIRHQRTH
Chain of ZFP 6 RSHR-RDER1-RDHT (synthetic) (chain, as listed by the source): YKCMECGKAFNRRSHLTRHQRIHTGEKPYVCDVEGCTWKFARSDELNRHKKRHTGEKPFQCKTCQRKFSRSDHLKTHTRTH
Chain of ZFP 24 CSNR1-QSHT-RSNR (synthetic) (chain, as listed by the source): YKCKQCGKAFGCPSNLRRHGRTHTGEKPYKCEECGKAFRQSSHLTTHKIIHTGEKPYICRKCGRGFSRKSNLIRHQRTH
Chain of ZFP 11 QSHT-RSHR-RDHT (synthetic) (chain, as listed by the source): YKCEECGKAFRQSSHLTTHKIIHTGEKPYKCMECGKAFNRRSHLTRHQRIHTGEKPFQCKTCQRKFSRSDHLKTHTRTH
Chain of ZFP 2 CSNR1-RSHR-RDHT (synthetic) (chain, as listed by the source): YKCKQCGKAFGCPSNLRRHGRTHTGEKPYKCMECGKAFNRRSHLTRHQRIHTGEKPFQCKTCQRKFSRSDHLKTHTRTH
Chain of ZFP 25 QSNR3-RDER1-RSNR (synthetic) (chain, as listed by the source): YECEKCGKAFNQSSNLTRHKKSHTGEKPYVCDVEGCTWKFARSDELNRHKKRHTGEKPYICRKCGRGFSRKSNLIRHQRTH
Chain of ZFP 19 RDER1-VSSR-QSHT (synthetic) (chain, as listed by the source): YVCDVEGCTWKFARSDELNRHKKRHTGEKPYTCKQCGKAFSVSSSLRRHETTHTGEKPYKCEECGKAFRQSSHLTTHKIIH
Chain of ZFP 30 RSHR-RSHR-QSHR2 (synthetic) (chain, as listed by the source): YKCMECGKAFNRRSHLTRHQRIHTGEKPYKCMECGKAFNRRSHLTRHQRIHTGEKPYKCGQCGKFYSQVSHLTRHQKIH
Chain of ZFP 27 RSHR-RDER1-RSHR (synthetic) (chain, as listed by the source): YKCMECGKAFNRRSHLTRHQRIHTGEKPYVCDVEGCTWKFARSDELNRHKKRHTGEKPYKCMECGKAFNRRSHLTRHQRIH
Chain of ZFP 1 RSNR-RDHT-RSNR (synthetic) (chain, as listed by the source): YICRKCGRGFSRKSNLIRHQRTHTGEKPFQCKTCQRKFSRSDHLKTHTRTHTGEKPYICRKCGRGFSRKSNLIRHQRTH
Chain of ZFP 13 QSHR2-RDER1-RSNR (synthetic) (chain, as listed by the source): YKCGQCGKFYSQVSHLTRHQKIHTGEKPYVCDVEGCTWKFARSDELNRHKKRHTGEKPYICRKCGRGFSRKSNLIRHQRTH
Chain of ZFP 26 QSNR3-QSNV2-RSHR (synthetic) (chain, as listed by the source): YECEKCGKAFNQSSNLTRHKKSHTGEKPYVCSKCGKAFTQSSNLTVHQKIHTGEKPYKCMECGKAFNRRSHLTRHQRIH

B1: target 18 (dsDNA)
DNA 1: CGAGCAGCG
DNA 2: CGCTGCTCG
The molecule B1 yielded an activity with ZFP 18 RDER1-QSSR1-QSHT of 2.2 fold repression.

B2: target 11 (dsDNA)
DNA 1: TGGGGGTGA
DNA 2: TCACCCCCA
For the molecule B2, the activity with ZFP 11 QSHT-RSHR-RDHT is 3 fold repression.

B3: target 2 (dsDNA)
DNA 1: TGGGGGGACA
DNA 2: TGTCCCCCCA
In turn, B3 yielded an activity in the series with ZFP 2 CSNR1-RSHR-RDHT of 4.5 fold repression.

B4: GAGT probe (dsDNA)
DNA 1: CCGGGTCGGGAGTGGGCGGTACCG
DNA 2: TCGACGGTACCGCCCACTCCCGAC
A word on the Kd: it is the free concentration of one partner at which half of the binding sites on the other are occupied at equilibrium, for simple one-to-one binding. A low value points to higher affinity. For B4, the Kd in [1] stood at 0.17 nM.

B5: ACAT probe (dsDNA)
DNA 1: CCGGGTCGGACATGGGCGGTACCG
DNA 2: TCGACGGTACCGCCCATGTCCGAC
B5: the Kd in series [2] is 1.3 nM.

B6: target 27 (dsDNA)
DNA 1: GGGGTGGGG
DNA 2: CCCCACCCC
With B6, the activity with ZFP 27 RSHR-RDER1-RSHR stood at 2 fold repression.

B7: target 1 (dsDNA)
DNA 1: GAGAGGGAGC
DNA 2: GCTCCCTCTC
In the case of B7, the activity with ZFP 1 RSNR-RDHT-RSNR stood at 8.1 fold repression.

B8: target 6 (dsDNA)
DNA 1: AGGGCGGGGC
DNA 2: GCCCCGCCCT
Consider B8, for which, in the series with ZFP 6 RSHR-RDER1-RDHT, the activity was 3.6 fold repression.

B9: target 30 (dsDNA)
DNA 1: GGAGGGGGGC
DNA 2: GCCCCCCTCC
B9 displayed an activity with ZFP 30 RSHR-RSHR-QSHR2 of 2 fold repression.

B10: target 25 (dsDNA)
DNA 1: GAGGCGGAAA
DNA 2: TTTCCGCCTC
The molecule B10 displayed an activity with ZFP 25 QSNR3-RDER1-RSNR of 2.1 fold repression.

B11: target 32 (dsDNA)
DNA 1: GGGGAGAAA
DNA 2: TTTCTCCCC
As for B11, the activity with ZFP 32 QSNV2-RSNR-RDHT was 1.9 fold repression.

B12: target 26 (dsDNA)
DNA 1: GGGAAAGAAC
DNA 2: GTTCTTTCCC
In the series with ZFP 26 QSNR3-QSNV2-RSHR, B12 returned an activity of 2 fold repression.

B13: target 8 (dsDNA)
DNA 1: GTAGGAGAGT
DNA 2: ACTCTCCTAC
The molecule B13 gave an activity with ZFP 8 RSNR-QSHR2-QSSR1 of 3.3 fold repression.

B14: target 13 (dsDNA)
DNA 1: GAGGTGGGAG
DNA 2: CTCCCACCTC
In the series with ZFP 13 QSHR2-RDER1-RSNR, B14 displayed an activity of 2.8 fold repression.

B15: target 24 (dsDNA)
DNA 1: GAGTGAGACC
DNA 2: GGTCTCACTC
B15: the activity with ZFP 24 CSNR1-QSHT-RSNR turned out to be 2.1 fold repression.

B16: target 19 (dsDNA)
DNA 1: CGAGTTGCG
DNA 2: CGCAACTCG
As for B16, in the series with ZFP 19 RDER1-VSSR-QSHT, the activity came out at 2.1 fold repression.
